Test results reported in US9637768B2, “Method for preparing sialic acid derivative” (priority 2013, dated 2017).

Key:
[1] = tested on: CC(=O)N[C@H]1[C@H]([C@H](O)[C@H](O)CO)O[C@](OP(=O)(O)OC[C@H]2O[C@@H](n3ccc(N)nc3=O)[C@H](O)[C@@H]2O)(C(=O)O)C[C@@H]1O; assay: purified protein, by the assay type; details: other: room temperature, substrate 0.1 to 30 mM
[2] = tested on: Photobacterium damselae α-2,6-sialyltransferase (α2,6PdST), all mutants of Table 3 (I411T, L433S, L433T, I411T/L433S, I411T/L433T); assay: kinetic parameters for α-2,6-sialyltransferase, all mutants (summary); assay type: biochemical; details: all mutants vs wild type
Method: The kinetic parameters, kcat and Km, were obtained from nonlinear regression analysis of Michaelis-Menten equation using Sigma Plot (SigmaPlot) program.
In order to appreciate the effect of each mutation on the donor substrate and the acceptor substrate, kinetic parameters for a single amino acid substitution mutant and a combinatorial mutant were measured.

[3] = tested on: α-2,6-sialyltransferase
Source text: The entire vector was subjected to PCR using a primer into which NNK sequence (a sequence where N is A, C, G or T, K is G or T) is introduced, the NNK sequence obtained by randomly replacing ATT and CTG sequences corresponding to amino acid positions 411 and 433 of α-2,6-sialyltransferase, thereby constructing a library. In α-2,6-sialyltransferase of the present invention, methionine is the first amino acid when counting from the first methionine sequence. In order to remove the original plasmid, the amplified gene of the sialyltransferase including the vector sequence was treated with Dpn enzyme and transformed into E. coli DH5a. Mutant genes were extracted from all of generated colonies and transformed into E. coli BW25113 (DE3). The transformed individual colonies were inoculated in the LB medium (500 μL) containing ampicillin in 96 well and shake-cultured at 30 to 37° C. for 18 to 24 hours, and then some of the culture liquid was inoculated in new LB medium (500 μL) containing 100 μg mL^−1 ampicillin and IPTG and cultured at 18 to 30° C. for 18 to 40 hours. […]
The wild type strain and mutants of sialyltransferase transformed into E. coli BW25113 (DE3) were expressed using the inducer IPTG in a culture volume of 50 mL, and purified to obtain only pure protein using Ni-NTA column, and specific activity and kinetic parameters were measured.

“Pasteurella multocida α-2,3-sialyltransferase (α2,3PST) variant R313N (= R289N of SEQ ID NO: 1), SEQ ID NO: 2 (Pasteurella multocida; R313N)” was tested, and the Km ([1]; R313N) was 2510 µM.

“Pasteurella multocida (ATCC15742) α-2,3-sialyltransferase (α2,3PST), wild type, SEQ ID NO: 1 (Pasteurella multocida)” was tested, and the Km ([1]; wild type) was 1830 µM.

Molecule “Pasteurella multocida α-2,3-sialyltransferase (α2,3PST) variant R313N/T265S (= R289N/T241S of SEQ ID NO: 1), SEQ ID NO: 5 (Pasteurella multocida; R313N/T265S)” has a Km ([1]; R313N/T265S) of 3330 µM.

For “Pasteurella multocida α-2,3-sialyltransferase (α2,3PST) variant T265S (= T241S of SEQ ID NO: 1), SEQ ID NO: 4 (Pasteurella multocida; T265S)”, the Km ([1]; T265S) was 2230 µM.

OC[C@H]1O[C@@H](O[C@H]2[C@H](O)[C@@H](O)C(O)O[C@@H]2CO)[C@H](O)[C@@H](O)[C@H]1O (stereo partly drawn) [Lac, lactose] was tested, and the “binding force with the acceptor substrate” value [2] was “reduced”.

With “Pasteurella multocida α-2,3-sialyltransferase (α2,3PST) variant R313H (= R289H of SEQ ID NO: 1), SEQ ID NO: 3 (Pasteurella multocida; R313H)” the Km ([1]; R313H) was 3240 µM.

For “Pasteurella multocida α-2,3-sialyltransferase (α2,3PST) variant R313H/T265S (= R289H/T241S of SEQ ID NO: 1), SEQ ID NO: 6 (Pasteurella multocida; R313H/T265S)”, the Km ([1]; R313H/T265S) was 3940 µM.

B1: L433T (protein)
chain: MCNSDNTSLKETVSSNSADVVETETYQLTPIDAPSSFLSHSWEQTCGTPILNESDKQAISFDFVAPELKQDEKYCFTFKGITGDHRYITNTTLTVVAPTLEVYIDHASLPSLQQLIHIIQAKDEYPSNQRFVSWKRVTVDADNANKLNIHTYPLKGNNTSPEMVAAIDEYAQSKNRLNIEFYTNTAHVFNNLPPIIQPLYNNEKVKISHISLYDDGSSEYVSLYQWKDTPNKIETLEGEVSLLANYLAGTSPDAPKGMGNRYNWHKLYDTDYYFLREDYLDVEANLHDLRDYLGSSAKQMPWDEFAKLSDSQQTLFLDIVGFDKEQLQQQYSQSPLPNFIFTGTTTWAGGETKEYYAQQQVNVINNAINETSPYYLGKDYDLFFKGHPAGGVINDIILGSFPDMINIPAKISFEVLMMTDMLPDTVAGIASSTYFTIPADKVNFIVFTSSDTITDREEALKSPLVQVMLTLGIVKEKDVLFWA
modifications: L433T
In the case of B1, the “activity increase compared to the wild type strain” value ([3]; mutant search by colorimetry) is reported as 3 times and the “Rel. Specific Ac (%)” value ([3]; α2,6PdST, relative to wild type, purified protein, CMP-N-acetylneuraminic acid and lactose) is reported as 296%.
